Measurements as given in patent publication US20060094111, “DNA containing variant FRT sequences” (published 2006).
Where a chain is given by its changes, count along the chain named.

B1: f72 mutant FRT (dsDNA)
DNA 1: TCGAGGACGTCGAAGTTCCTATACTTTCTACAGAATAGGAACTTCTCCGGAA
DNA 2: CTAGTTCCGGAGAAGTTCCTATTCTGTAGAAAGTATAGGAACTTCGACGTCC
B2: f2161 mutant FRT (dsDNA)
DNA 1: B1 DNA 1 with T26C, A30G, C31G
DNA 2: B1 DNA 2 with G26C, T27C, A31G
B3: f2262 mutant FRT (dsDNA)
DNA 1: B1 DNA 1 with T26A, A30T, C31G
DNA 2: B1 DNA 2 with G26C, T27A, A31T
B4: F3 mutant FRT (dsDNA)
DNA 1: B1 DNA 1 with T26A, C28T, A30G, C31A
DNA 2: B1 DNA 2 with G26T, T27C, G29A, A31T
B5: f2151 mutant FRT (dsDNA)
DNA 1: B1 DNA 1 with T26C, T29C, C31G
DNA 2: B1 DNA 2 with G26C, A28G, A31G
B6: f61 mutant FRT (dsDNA)
DNA 1: B1 DNA 1 with A30G, C31G
DNA 2: B1 DNA 2 with G26C, T27C

Target: T1, FLP recombinase (Saccharomyces cerevisiae, UniProt P03870 P03870:1-423)
T1 sequence: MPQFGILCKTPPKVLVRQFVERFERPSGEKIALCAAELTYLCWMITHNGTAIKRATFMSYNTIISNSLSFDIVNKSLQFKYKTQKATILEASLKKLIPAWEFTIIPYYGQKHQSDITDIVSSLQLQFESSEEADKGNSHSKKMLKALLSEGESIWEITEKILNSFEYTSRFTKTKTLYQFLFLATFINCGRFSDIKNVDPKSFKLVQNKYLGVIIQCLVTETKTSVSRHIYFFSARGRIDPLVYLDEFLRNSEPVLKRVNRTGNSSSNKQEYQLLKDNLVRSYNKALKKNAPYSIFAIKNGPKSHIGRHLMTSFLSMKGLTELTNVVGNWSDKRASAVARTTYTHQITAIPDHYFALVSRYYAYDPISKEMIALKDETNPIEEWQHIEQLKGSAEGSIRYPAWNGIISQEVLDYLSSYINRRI
Test: recombination of two identical sites; same buffer
Details: tags: untagged; expressed from recombinant adenovirus AxCAFLP (2 micron DNA FLP gene) in 293 cells; chain copies: 4
Description: Whether or not FLP-dependent recombination reaction caused between the two mutant FRT sequences was studied by the assay described below. The DraI-digested plasmid DNA (1.5 μg) prepared in Example 2 and the cell extract containing FLP (25 μl) prepared in Example 1 were added to buffer containing 50 mM Tris-HCl (pH 7.5)/10 mM MgCl₂/5 mM DTT in its final concentration (the volume of reaction solution: 50 μl), and the reaction mixture was incubated at 30° C. for 30 minutes. After the termination of the reaction, 200 μl of sterilized water and 50 […] of 20 mM EDTA solution (pH 8.0) were added to the reaction mixture. The reaction mixture was extracted with phenol/chloroform and with chloroform. The resulting product was precipitated with ethanol, to obtain DNA. The resulting DNA was then solubilized in 20 μl of TE buffer (pH 8.0) containing RNaseA (20 μg/ml). Next, an entire volume of the resultant was digested with restriction enzyme NcoI, and subjected to electrophoresis on agarose gel. Thereafter, DNA bands detected by ethidium bromide (EtBr) staining were analyzed.
In order to numerically express the reaction efficiency, the ratio of […] was calculated as the recombination ratio (%) between the two FRT sequences.

Binder | activity [%]
B1 | 10.9
B2 | 4.5
B3 | 3.8
B4 | 3.1
B5 | 2.9
B6 | 2.6
